Experimental data from the supplement of paper PMC7877785.
± gives the uncertainty stated by the source.

Test: self-splicing fitness, log relative to wild type (ln ratio); higher = more splicing; Tetrahymena group I intron in knt gene, E. coli kanamycin selection, DiMSum; sequences stand for … in CUCUCU…GGAGGGAAAAGUUAUCAGGCAUGCACCUGGUAGCUAGUCUUUAAACCAAUAGAUUGCAUCGGUUUAAAAGGCAAGACCGUCAAAUUGCGGGAAAGGGGUCAACAGCCGUUCAGUACCAAGUCUCAGGGGAAACUUUGAGAUGGCCUUGCAAAGGGUAUGGUAAUAAGCUGACGGACAUGGUCCUAACCACGCAGCCAAGUCCUAAGUCAACAGAUCUUCUGUUGAUAUGGAUGCAGUUCACAGACUAAAUGUCGGUCGGGGAAGAUGUAUUCUUCUCAUAAGAUAUAGUCGGACCUCUCCUUAAUGGGAGCUAGCGGAUGAAGUGAUGCAACACUGGAGCCGCUGGGAACUAAUUUGUAUGCGAAAGUAUAUUGAUUAGUUUUGGAGUACUCGUGGUCG
How it was run: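 Library with all eight P1ex-region intron nucleotides randomised, intron inside the knt kanamycin-resistance gene on pET-22b(+), in E. coli BL21(DE3). Cells grew overnight at 37°C or 30°C on LB agar with or without 25 μg/mL kanamycin (plus 100 μg/mL carbenicillin, 50 μM IPTG, 0.2% rhamnose), in six replicate transformations. Pooled colonies were amplicon-sequenced on Illumina HiSeq 2500. DiMSum fitness is the error-weighted combination of wild-type-normalised replicate fold changes, kanamycin versus none.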

Row | Sequence | self-splicing fitness (ln) (30 °C) | self-splicing fitness (ln) (37 °C)
1 | UUAAAGCAAUAUUACGAACC | -1.34 ± 0.18 | -0.963 ± 0.23
2 | CGUUAGCAAUAUUACGCUCU | -1.56 ± 0.14 | -1.07 ± 0.17
3 | GGCAAGCAAUAUUACGGGGA | -3.51 ± 0.26 | -1.31 ± 0.3
4 | GUGUAGCAAUAUUACGAAUA | -1.91 ± 0.39 | -1.39 ± 0.43
5 | AGGUAGCAAUAUUACGGACU | 0.0184 ± 0.014 | 0.271 ± 0.033
6 | AUUCAGCAAUAUUACGCCUG | -1.95 ± 0.12 | -0.706 ± 0.19
7 | UGGUAGCAAUAUUACGGGGU | -3.24 ± 0.43 | 
8 | GACCAGCAAUAUUACGUAUG | -1.75 ± 0.065 | -0.824 ± 0.076
9 | AUCGAGCAAUAUUACGGCUA | -1.22 ± 0.12 | -1.28 ± 0.12
10 | GUGUAGCAAUAUUACGGUAU | -2.35 ± 0.12 | -0.18 ± 0.12
11 | UUAGAGCAAUAUUACGGCCC | -3.84 ± 0.36 | -1.52 ± 0.32
12 | UGUAAGCAAUAUUACGACAU | -1.44 ± 0.015 | -0.831 ± 0.034
13 | GUGCAGCAAUAUUACGCGGG | -2.81 ± 0.36 | -1.03 ± 0.2
14 | AUGAAGCAAUAUUACGCGUU | -2.78 ± 0.12 | -0.429 ± 0.093
15 | CCUUAGCAAUAUUACGUUUC | -1.94 ± 0.18 | -1.11 ± 0.46
16 | AUAGAGCAAUAUUACGAGGA | -2.21 ± 0.23 | -2.16 ± 0.27
17 | CCGGAGCAAUAUUACGAGCC | -3.09 ± 0.31 | -2.1 ± 0.42
18 | AUGCAGCAAUAUUACGGACG | -1.57 ± 0.12 | -0.811 ± 0.13
19 | GGGGAGCAAUAUUACGAUGG | -2.44 ± 0.45 | -2.67 ± 0.44
20 | CAGUAGCAAUAUUACGCCAG | -0.7 ± 0.1 | -0.109 ± 0.15

Row | Sequence | self-splicing fitness (ln) (30 °C) | self-splicing fitness (ln) (37 °C)
21 | AGUGAGCAAUAUUACGACCA | -1.79 ± 0.26 | -1.52 ± 0.48
22 | ACCAAGCAAUAUUACGUAUG | -3.59 ± 0.13 | -2.53 ± 0.12
23 | GCCAAGCAAUAUUACGAUCU | -1.94 ± 0.13 | -0.903 ± 0.098
24 | UAAGAGCAAUAUUACGUUAU | -3.21 ± 0.44 | 
25 | UAAUAGCAAUAUUACGUGAG | -1.76 ± 0.088 | -1.47 ± 0.12
26 | UCCAAGCAAUAUUACGGUCA | -0.259 ± 0.06 | 0.0746 ± 0.065
27 | CGAUAGCAAUAUUACGUCAA | -3.18 ± 0.18 | -2.08 ± 0.15
28 | GGUGAGCAAUAUUACGGUUG | -3.99 ± 0.37 | -2.36 ± 0.25
29 | AUCGAGCAAUAUUACGGGUA | -2.85 ± 0.16 | -2.15 ± 0.14
30 | ACAGAGCAAUAUUACGGAUA | -3.19 ± 0.45 | 
31 | CUGGAGCAAUAUUACGACGG | -3.79 ± 0.38 | -3.09 ± 0.43
32 | GCUGAGCAAUAUUACGAUCC | -1.34 ± 0.15 | 0.743 ± 0.24
33 | AGGAAGCAAUAUUACGCUCC | -1.87 ± 0.31 | 
34 | UAAGAGCAAUAUUACGACGC | -2.96 ± 0.32 | -2.07 ± 0.43
35 | GCCUAGCAAUAUUACGUAGA | -1.73 ± 0.16 | 0.22 ± 0.13
36 | AAAUAGCAAUAUUACGCCCC | -1.71 ± 0.32 | 0.0438 ± 0.38
37 | ACUUAGCAAUAUUACGCGUU | -2.5 ± 0.12 | -2.05 ± 0.12
38 | GGCUAGCAAUAUUACGUGAC | -1.84 ± 0.14 | -1.02 ± 0.16
39 | GGCCAGCAAUAUUACGCCUU | -2.04 ± 0.12 | -0.815 ± 0.097
